Data reported in patent US20220348635A1, “COMPOSITIONS AND METHODS FOR NEUROLOGICAL DISEASES” (Coda Biotherapeutics, Inc., priority 2019, published 2022).
Where a chain is given by its changes, count along the chain named. In names and notes the source's numbering stands.

B1: Y115D, S170T in SEQ ID NO: 33: engineered chimeric α7-nAChR/GlyRα1 LGIC receptor: SEQ ID NO: 33 with substitutions Y115D and S170T (protein)
chain: MRCSPGGVWLALAASLLHVSLQGEFQRKLYKELVKNYNPLERPVANDSQPLTVYFSLSLLQIMDVDEKNQVLTTNIWLQMSWTDHYLQWNVSEYPGVKTVRFPDGQIWKPDILLDNSADERFDATFHTNVLVNSSGHCQYLPPGIFKSSCPMDLKNFPMDVQTCKLKFGTWSYGGWSLDLQMQEADISGYIPNGEWDLVGIPGKRSERFYECCKEPYPDVTFTVTMRRRMGYYLIQMYIPSLLIVILSWISFWINMDAAPARVGLGITTVLTMTTQSSGSRASLPKVSYVKAIDIWMAVCLLFVFSALLEYAAVNFVSRQHKELLRFRRKRRHHKSPMLNLFQEDEAGEGRFNFSAYGMGPACLQAKDGISVKGANNSNTTNPPPAPSKSPEEMRKLFIQRAKKIDKISRIGFPMAFLIFNMFYWIIYKIVRREDVHNQ
modifications: synthetic sequence of chimeric LGIC
B2: Y115D, L131E in SEQ ID NO: 33: engineered chimeric α7-nAChR/GlyRα1 LGIC receptor: SEQ ID NO: 33 with substitutions Y115D and L131E (protein)
chain: B1 chain with L131E, T170S
modifications: synthetic sequence of chimeric LGIC

Legend:
Assay type in all cases: cell-based
[1] = YFP quench plate reader assay, response to APN-1125; details: LX293T YFP reporter cells; for percent quench of YFP fluorescence, 100 nM apn: 100 nM APN-1125; for percent quench of YFP fluorescence, 1 uM apn: 1 uM APN-1125; for percent quench of YFP fluorescence, 30 uM apn: 30 uM APN-1125
Excerpt: (§1) FIGS. 1A-FIG. 1G show the heat maps of the percent quench of YFP fluorescence in the mutants of the engineered chimeric receptor SEQ ID NO:33 that comprise the indicated double amino acid substitutions following stimulation by various doses of either acetylcholine or the indicated non-native ligand. Ligand doses are written across the top of each chart. Numbers in the boxes indicate the absolute amount of quench observed. Dark blue=80% maximal quench of YFP reporter. Light blue=quench of 30-80%. White=10-30%. Orange=0-10% quench. Negative values represent non-responders that have a negative quench due to a stimulation artifact. SEQ ID NO:29 is a non-responding chimera used as a negative control. Abbreviations for non-native ligand names: abt: ABT-126; ach: acetylcholine; apn: APN-1125; azd: AZD-0328; brd: TC-5619; fac: RG3487; tc6: TC-6987.
(§2) Tables 2-8 below lists percent quench of YFP fluorescence following stimulation of the indicated engineered receptor by various doses of either acetylcholine or the non-native ligand.
(§3) To screen these mutant LGICs for those having novel response profiles to ligands, an anion reporter assay was developed to assess the function of channels in a high throughput format. In this assay, cells expressing a YFP reporter whose fluorescence is quenched in the presence of anion are transfected with DNA encoding the channel of interest. Upon exposure to ligand, channels that are activated will flux anion, resulting in a dose-dependent quench of the YFP that can be detected on a plate reader.
(§4) Lenti-X 293T cells (LX293T, Clontech) were maintained in DMEM containing 10% FBS and 1% penicillin/streptomycin (Invitrogen). […] Two days before assay, cells were split at a density of 20,000 cells/well in a 96-well tissue culture plate coated with poly-d lysine (Thermo Scientific). The next day, the cells were transiently transfected with 0.1 μg of DNA per well using standard Fugene protocol (Promega). On the day of assay, cells were washed 2 times in 1× extracellular solution (1×ECS: 140 mM NaCl, 5 mM KCl, 1 mM MgCl2, 2 mM CaCl2, 10 mM HEPES, 10 mM glucose, pH 7.2, mOsms 300). After the last wash, 100 μL of 1×ECS was added to the wells and the plate was incubated at 37° C. for 30 min. While incubating the plate, the drugs were diluted to a 2× concentration in 1×ECS-NaI (same components as 1×ECS except the 140 mM NaCl was replaced by 140 mM NaI). The plates were then read on a Flexstation3 (Molecular Devices). Each well, 8 wells at a time, of the plate is read for 2 min using a Flexstation3 (Molecular Devices) as follows: 1) a baseline YFP fluorescence is read for 17 sec, 2) 100 μL of ligand is added, and 3) the changes in YFP fluorescence are then measured every 1.3 sec for the remaining time.
(§5) FIG. 1 provides heat maps of the percent quench of YFP fluorescence following stimulation by various doses of either acetylcholine or the non-native ligand as indicated in the Figure. A positive fluorescence signal, as indicated by blue shaded cells, indicate that the engineered receptor is activated by the non-native ligand at that concentration. […] Table 12 lists the EC50 values for the indicated double mutants to acetylcholine (Ach) and TC-5619 as determined from the YFP fluorescence plate reader experiment.

[2] = YFP quench plate reader assay, response to RG3487; details: LX293T YFP reporter cells; for percent quench of YFP fluorescence, 30 nM fac: 30 nM RG3487; for percent quench of YFP fluorescence, 100 nM fac: 100 nM RG3487; for percent quench of YFP fluorescence, 300 nM fac: 300 nM RG3487; for percent quench of YFP fluorescence, 10 uM fac: 10 uM RG3487; for percent quench of YFP fluorescence, 30 uM fac: 30 uM RG3487
Excerpt: as §1, §2, §3, §4, §5

[3] = YFP quench plate reader assay, response to AZD-0328; details: LX293T YFP reporter cells; for percent quench of YFP fluorescence, 100 nM azd: 100 nM AZD-0328; for percent quench of YFP fluorescence, 300 nM azd: 300 nM AZD-0328; for percent quench of YFP fluorescence, 30 uM azd: 30 uM AZD-0328
Excerpt: as §1, §2, §3, §4, §5

[4] = YFP quench plate reader assay, response to TC-6987; details: LX293T YFP reporter cells; for percent quench of YFP fluorescence, 1 uM tc6: 1 uM TC-6987; for percent quench of YFP fluorescence, 10 uM tc6: 10 uM TC-6987; for percent quench of YFP fluorescence, 500 uM tc6: 500 uM TC-6987
Excerpt: as §1, §2, §3, §4, §5

[5] = High throughput electrophysiology in HEK293T cells, AZD-0328; details: HEK293T cells, held at −60 mV
Procedure: To confirm the EC50s determined by plate reader as well as develop a better understanding of maximum current flow, the engineered receptors were subjected to high throughput electrophysiology system, as described below. For HEK293T studies, cDNAs encoding ion channels were cloned into pcDNA3.1 using standard recombination techniques. HEK293T cells from Clontech (Lenti-X™ 293T Cell Line) were cultured in DMEM supplemented with 10% FBS and 1% Pen/Strep to 40-50% confluence using standard cell culture protocols, transfected with ion channel plasmids at a concentration of 18 μg per 15 cm dish using Fugene 6, and grown for an additional 24 hours. Cells were then assayed on a electrophysiological system (IonFluxHT and/or Mercury, Fluxion Biosciences) in which dose-response relationships may be assessed through a microfluidics-based platform for establishing whole cell configurations. Ensemble plates were primed with extracellular buffer (140 mM NaCl, 5 mM KCl, 2 mM CaCl2), 1 mM MgCl2, 10 mM HEPES, and 10 mM glucose, pH 7.2 with NaOH, mOsm 310), intracellular buffer (145 mM CsCl, 2 mM CaCl2, 2 mM MgCl2, 10 mM HEPES, and 10 mM EGTA, pH 7.2 with CsOH, mOsm 305), as adapted from Lynagh and Lynch, and test compounds (stocks prepared fresh) diluted in extracellular buffer. Cells were then released from the plate with Accutase, centrifuged, resuspended in extracellular buffer, and loaded into Ensemble plates. Cells were then subjected to a standard protocol for priming, trapping, breaking, and establishing whole cell configuration, with cells held at −60 mV throughout the recording. After recording baseline, progressive doses of test compounds were applied using the IonFlux software to assess dose response relationships. Data were then analyzed off-line using custom Python scripts to convert data to .csv format, re-plot traces, and apply QC measurements to reject unstable recordings (i.e. thresholding based on access resistance and/or standard deviation in baseline, as well as artifact rejection). Peak currents were then calculated and population data were fit using a 4-parameter logistic equation as described by the Hill Equation. Currents were measured on an automated patch clamp system (Fluxion Biosciences) following 1 second addition of drug and the EC50 values calculated are tabulated below in Table 13.

[6] = YFP quench plate reader assay, response to ABT-126; details: LX293T YFP reporter cells; for percent quench of YFP fluorescence, 50 nM abt: 50 nM ABT-126; for percent quench of YFP fluorescence, 100 nM abt: 100 nM ABT-126; for percent quench of YFP fluorescence, 300 nM abt: 300 nM ABT-126; for percent quench of YFP fluorescence, 1 uM abt: 1 uM ABT-126
Excerpt: as §1, §2, §3, §4, §5

[7] = YFP quench plate reader assay, response to TC-5619; details: LX293T YFP reporter cells; for percent quench of YFP fluorescence, 1 nM brd: 1 nM TC-5619; for percent quench of YFP fluorescence, 3 nM brd: 3 nM TC-5619; for percent quench of YFP fluorescence, 10 nM brd: 10 nM TC-5619; for percent quench of YFP fluorescence, 30 nM brd: 30 nM TC-5619; for percent quench of YFP fluorescence, 100 nM brd: 100 nM TC-5619; for percent quench of YFP fluorescence, 300 nM brd: 300 nM TC-5619; for percent quench of YFP fluorescence, 1 uM brd: 1 uM TC-5619
Excerpt: as §1, §2, §3, §4, §5

[8] = YFP quench plate reader assay, response to acetylcholine; details: LX293T YFP reporter cells; for percent quench of YFP fluorescence, 10 uM ach: 10 uM acetylcholine; for percent quench of YFP fluorescence, 100 uM ach: 100 uM acetylcholine; for percent quench of YFP fluorescence, 1 mM ach: 1 mM acetylcholine; for percent quench of YFP fluorescence, 3 mM ach: 3 mM acetylcholine
Excerpt: as §1, §2, §3, §4, §5

Molecule | percent quench of YFP fluorescence, 100 nM apn [1] | percent quench of YFP fluorescence, 1 uM apn [1] | percent quench of YFP fluorescence, 30 uM apn [1] | percent quench of YFP fluorescence, 30 nM fac [2] | percent quench of YFP fluorescence, 100 nM fac [2] | percent quench of YFP fluorescence, 300 nM fac [2] | percent quench of YFP fluorescence, 10 uM fac [2] | percent quench of YFP fluorescence, 30 uM fac [2] | percent quench of YFP fluorescence, 100 nM azd [3] | percent quench of YFP fluorescence, 300 nM azd [3] | percent quench of YFP fluorescence, 30 uM azd [3] | percent quench of YFP fluorescence, 1 uM tc6 [4] | percent quench of YFP fluorescence, 10 uM tc6 [4] | percent quench of YFP fluorescence, 500 uM tc6 [4] | EC50 AZD-0328 [5] | percent quench of YFP fluorescence, 50 nM abt [6] | percent quench of YFP fluorescence, 100 nM abt [6] | percent quench of YFP fluorescence, 300 nM abt [6] | percent quench of YFP fluorescence, 1 uM abt [6] | percent quench of YFP fluorescence, 1 nM brd [7] | also measured
B1 | −18.17% | −15.2% | −14% | 38.08% | −14.37% | 19.41% | 67.33% | 79.67% | −0.71% | −1.73% | 47.39% | 31.9% | 25.54% | 21.13% | no activity | −11.83% | −11.5% | −8.01% | −9.34% | −9.78% | percent quench of YFP fluorescence, 3 nM brd [7]: 12.06%; percent quench of YFP fluorescence, 10 nM brd [7]: −9.02%; percent quench of YFP fluorescence, 30 nM brd [7]: 16.3%; percent quench of YFP fluorescence, 100 nM brd [7]: −7.44%; percent quench of YFP fluorescence, 300 nM brd [7]: −10.93%; percent quench of YFP fluorescence, 1 uM brd [7]: −4.55%; percent quench of YFP fluorescence, 10 uM ach [8]: −0.46%; percent quench of YFP fluorescence, 100 uM ach [8]: −4.93%; percent quench of YFP fluorescence, 1 mM ach [8]: −11.18%; percent quench of YFP fluorescence, 3 mM ach [8]: −3.53%
B2 | −5.71% | 13.03% | 25.2% | 45.76% | 63.92% | 79.43% | 80.1% | 84.91% | 24.49% | 45.34% | 71.21% | 36.07% | 31.35% | 28.18% | no activity | −1.68% | −2.25% | −2.37% | 3.68% | −1.52% | percent quench of YFP fluorescence, 3 nM brd [7]: −5.35%; percent quench of YFP fluorescence, 10 nM brd [7]: −3.49%; percent quench of YFP fluorescence, 30 nM brd [7]: 2.16%; percent quench of YFP fluorescence, 100 nM brd [7]: 4.18%; percent quench of YFP fluorescence, 300 nM brd [7]: 70.2%; percent quench of YFP fluorescence, 1 uM brd [7]: 43.11%; percent quench of YFP fluorescence, 10 uM ach [8]: 15.45%; percent quench of YFP fluorescence, 100 uM ach [8]: 13.77%; percent quench of YFP fluorescence, 1 mM ach [8]: 27.42%; percent quench of YFP fluorescence, 3 mM ach [8]: 53.62%
